Patent US20220112291A1 (Pfizer, published 2022)

How the values were obtained:
[1] = molecular target: T1, human CD1a expressed on cells (human, UniProt P06126 17-327); test: cell-based or functional assay
[2] = molecular target: T2, human single-chain CD1a-β2M recombinant protein (Human B2M-CD1a ECD-Avi-His6) (human); test: SPR (Biacore), IgG; antigen taken as human CD1a
T2 construct: Biotinylated in the HTRF, phage selection and Gyrolab assays; also called human CD1a; CD1a protein

[3] = molecular target: T2, human single-chain CD1a-β2M recombinant …; test: competition ELISA on plate-coated CD1a protein; competitor: biotinylated parental chimeric Ab40 at a fixed concentration; streptavidin-HRP, OD450
Target sequence in this assay (chain, as listed by the source limits assumed): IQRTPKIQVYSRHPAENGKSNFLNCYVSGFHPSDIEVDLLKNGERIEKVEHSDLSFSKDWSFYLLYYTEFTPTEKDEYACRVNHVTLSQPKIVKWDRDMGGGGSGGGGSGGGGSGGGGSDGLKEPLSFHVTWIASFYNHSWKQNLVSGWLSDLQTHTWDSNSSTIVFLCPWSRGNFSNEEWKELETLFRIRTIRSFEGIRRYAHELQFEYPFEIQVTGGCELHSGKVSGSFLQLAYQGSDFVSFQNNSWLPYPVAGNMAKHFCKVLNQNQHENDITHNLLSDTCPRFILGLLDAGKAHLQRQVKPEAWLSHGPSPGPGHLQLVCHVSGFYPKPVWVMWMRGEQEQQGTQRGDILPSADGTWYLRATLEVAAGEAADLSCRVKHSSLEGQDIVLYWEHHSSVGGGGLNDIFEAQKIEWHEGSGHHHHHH

[4] = molecular target: T1, human CD1a expressed on cells; test: cell-based or functional assay; remark: listed apart in the source
[5] = molecular target: T3, Human C1q (human, UniProt P02745 23-245; P02746 28-253; P02747 29-245); test: in vitro human C1q binding assay
T3 construct: Source and form of C1q not described; also called Clq

[6] = molecular target: Human CD1b (recombinant; Human B2M-CD1b ECD-His6) (human); test: ELISA, plates coated with recombinant CD1b, titrated Ab571
[7] = molecular target: Human CD1c (recombinant; Human B2M-CD1c ECD-His6) (human); test: ELISA, plates coated with recombinant CD1c, titrated Ab571
[8] = molecular target: Human CD1d (recombinant; Human B2M-CD1d ECD-His6) (human); test: ELISA, plates coated with recombinant CD1d, titrated Ab571
[9] = molecular target: T2, human single-chain CD1a-β2M recombinant …; test: ELISA, plates coated with recombinant human CD1a, titrated Ab571
[10] = molecular target: T2, human single-chain CD1a-β2M recombinant …; test: Surface Plasmon Resonance (summary table; same experiment as Table 7)
[11] = molecular target: T4, cynomolgus CD1a-β2M recombinant protein (Cyno B2M-CD1a ECD-Avi-His6) (cynomolgus monkey); test: as above
T4 construct: also called cyno CD1a; cynomolgus monkey CD1a
T4 chain: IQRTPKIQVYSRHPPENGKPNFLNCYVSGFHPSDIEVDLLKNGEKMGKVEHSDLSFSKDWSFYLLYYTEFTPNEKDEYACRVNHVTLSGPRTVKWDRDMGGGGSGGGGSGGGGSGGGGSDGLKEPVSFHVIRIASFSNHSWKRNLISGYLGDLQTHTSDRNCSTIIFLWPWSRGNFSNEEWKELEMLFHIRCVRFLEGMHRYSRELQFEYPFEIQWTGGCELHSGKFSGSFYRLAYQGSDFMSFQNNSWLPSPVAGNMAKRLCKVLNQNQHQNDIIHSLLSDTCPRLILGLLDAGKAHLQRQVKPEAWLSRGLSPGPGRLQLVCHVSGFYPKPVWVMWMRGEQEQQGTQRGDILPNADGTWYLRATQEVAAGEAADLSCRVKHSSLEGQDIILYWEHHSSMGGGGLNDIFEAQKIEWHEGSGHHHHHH

[12] = molecular target: T4, cynomolgus CD1a-β2M recombinant protein …; test: SPR (Biacore 8K, 37 °C), Ab571 captured by anti-human Fc, cyno CD1a as analyte, 1:1 Langmuir fit
[13] = molecular target: T2, human single-chain CD1a-β2M recombinant …; test: SPR (Biacore 8K, 37 °C), Ab571 captured by anti-human Fc, human CD1a as analyte, 1:1 Langmuir fit
[14] = molecular target: T1, human CD1a expressed on cells; test: flow cytometry, AF-647-conjugated Ab571 on primary human monocyte-derived dendritic cells; average
[15] = molecular target: T4, cynomolgus CD1a-β2M recombinant protein …; test: SPR (Biacore 8K, 37 °C), Ab571 captured by anti-human Fc, cyno CD1a as analyte, 1:1 Langmuir fit; mean ± SD, n = 6
[16] = molecular target: T2, human single-chain CD1a-β2M recombinant …; test: SPR (Biacore 8K, 37 °C), Ab571 captured by anti-human Fc, human CD1a as analyte, 1:1 Langmuir fit; mean ± SD, n = 6

T1 sequence (P06126 17-327): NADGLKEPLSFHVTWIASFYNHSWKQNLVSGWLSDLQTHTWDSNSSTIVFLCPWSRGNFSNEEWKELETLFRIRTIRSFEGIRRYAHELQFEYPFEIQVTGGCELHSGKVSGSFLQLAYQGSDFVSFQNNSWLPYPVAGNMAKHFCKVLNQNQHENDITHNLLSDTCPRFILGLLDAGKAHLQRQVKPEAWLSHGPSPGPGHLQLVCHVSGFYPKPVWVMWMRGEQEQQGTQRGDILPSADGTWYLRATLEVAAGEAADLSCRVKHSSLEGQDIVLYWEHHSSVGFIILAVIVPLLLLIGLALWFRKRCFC
Human CD1c (recombinant; Human B2M-CD1c ECD-His6) (human), sequence (chain, as listed by the source limits assumed): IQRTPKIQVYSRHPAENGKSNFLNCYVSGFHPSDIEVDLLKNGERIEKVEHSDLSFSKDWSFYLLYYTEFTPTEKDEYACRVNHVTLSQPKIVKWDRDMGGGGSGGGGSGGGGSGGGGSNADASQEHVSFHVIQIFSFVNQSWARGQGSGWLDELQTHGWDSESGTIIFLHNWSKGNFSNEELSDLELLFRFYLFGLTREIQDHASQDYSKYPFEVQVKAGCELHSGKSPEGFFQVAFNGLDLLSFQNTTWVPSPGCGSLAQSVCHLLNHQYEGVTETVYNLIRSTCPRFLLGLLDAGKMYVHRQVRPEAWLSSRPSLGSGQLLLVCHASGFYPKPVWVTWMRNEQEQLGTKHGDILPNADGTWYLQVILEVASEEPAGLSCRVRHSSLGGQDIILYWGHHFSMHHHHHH
T3 sequence (P02745 23-245 limits assumed, chain 1 of 3): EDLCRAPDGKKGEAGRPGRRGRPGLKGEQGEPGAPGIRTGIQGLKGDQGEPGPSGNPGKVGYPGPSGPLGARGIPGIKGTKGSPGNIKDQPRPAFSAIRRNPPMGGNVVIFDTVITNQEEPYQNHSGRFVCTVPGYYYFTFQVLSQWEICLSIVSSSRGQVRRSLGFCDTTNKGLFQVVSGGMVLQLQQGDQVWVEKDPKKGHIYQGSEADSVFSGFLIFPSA
T3 sequence (P02746 28-253 limits assumed, chain 2 of 3): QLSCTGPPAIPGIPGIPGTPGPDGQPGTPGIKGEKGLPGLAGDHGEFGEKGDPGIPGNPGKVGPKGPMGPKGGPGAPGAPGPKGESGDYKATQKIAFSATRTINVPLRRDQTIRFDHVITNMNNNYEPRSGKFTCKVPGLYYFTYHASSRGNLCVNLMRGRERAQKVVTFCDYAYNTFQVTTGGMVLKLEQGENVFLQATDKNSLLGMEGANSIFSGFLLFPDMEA
T3 sequence (P02747 29-245 limits assumed, chain 3 of 3): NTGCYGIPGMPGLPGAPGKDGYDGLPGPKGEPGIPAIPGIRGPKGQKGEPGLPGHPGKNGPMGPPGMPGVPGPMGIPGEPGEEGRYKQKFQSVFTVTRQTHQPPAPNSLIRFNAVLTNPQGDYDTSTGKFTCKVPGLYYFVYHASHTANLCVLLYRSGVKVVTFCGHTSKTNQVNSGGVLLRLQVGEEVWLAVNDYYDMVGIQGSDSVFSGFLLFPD
Human CD1b (recombinant; Human B2M-CD1b ECD-His6) (human), sequence (chain, as listed by the source limits assumed): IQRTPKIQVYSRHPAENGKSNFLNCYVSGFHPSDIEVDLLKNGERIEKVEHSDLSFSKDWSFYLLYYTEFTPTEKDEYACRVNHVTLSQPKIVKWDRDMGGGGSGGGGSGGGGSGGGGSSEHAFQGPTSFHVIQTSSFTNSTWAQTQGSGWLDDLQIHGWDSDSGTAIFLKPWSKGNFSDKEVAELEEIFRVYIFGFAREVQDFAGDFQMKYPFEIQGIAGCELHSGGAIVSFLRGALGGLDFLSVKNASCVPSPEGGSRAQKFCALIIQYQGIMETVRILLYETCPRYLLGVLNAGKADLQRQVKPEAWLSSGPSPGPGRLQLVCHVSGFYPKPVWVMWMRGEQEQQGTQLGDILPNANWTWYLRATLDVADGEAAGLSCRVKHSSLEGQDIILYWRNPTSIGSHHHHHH
Human CD1d (recombinant; Human B2M-CD1d ECD-His6) (human), sequence (chain, as listed by the source limits assumed): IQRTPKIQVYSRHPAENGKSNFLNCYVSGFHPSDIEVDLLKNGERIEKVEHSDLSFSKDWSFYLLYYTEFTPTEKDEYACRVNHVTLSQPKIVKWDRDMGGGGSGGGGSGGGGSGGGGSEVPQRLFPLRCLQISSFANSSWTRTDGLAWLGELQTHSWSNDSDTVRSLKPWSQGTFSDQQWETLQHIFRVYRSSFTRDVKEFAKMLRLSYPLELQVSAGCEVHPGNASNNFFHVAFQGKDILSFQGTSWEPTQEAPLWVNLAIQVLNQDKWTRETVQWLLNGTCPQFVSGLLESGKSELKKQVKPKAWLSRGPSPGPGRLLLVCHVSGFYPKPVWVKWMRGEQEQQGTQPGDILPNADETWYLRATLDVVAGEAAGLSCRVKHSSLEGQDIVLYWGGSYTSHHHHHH

B1: Ab138 (antibody, human IgG1, kappa, V domains shown)
VH: EVQLVESGGGLVQPGGSLRLSCAASGFTFTDFYMNWVRQAPGKGLEWVAFIRNKANGYTTESNPSVKGRFTISRDNAKNSLYLQMNSLRAEDTAVYYCARETTGIPTGWFAYWGQGTLVTVSS
VL: DIQMTQSPSSLSASVGDRVTITCLASEDISNDLAWYQQKPGKAPKLLIYGANRLKDGVPSRFSGSGSGTDYTLTISSLQPEDFATYYCQQSYKYPYTFGQGTKLEIKR
notes: Humanized variant of chimeric Ab40; human IgG1 (L234A/L235A/G237A, effector function null) / human kappa; heavy chain can be prepared with or without the terminal lysine; Tb-labeled in the HTRF assay; also called humanized anti-CD1a antibody Ab138; parental Ab138
Inhibition of CD69 expression, IC50 [1]: 1.97 nM
Kd [2]: 3.87 nM
IC50 [3]: 1.94 nM

B2: Ab571 (antibody, human IgG1, kappa)
heavy: EVQLVESGGGLVQPGGSLRLSCAASGFTFTDHYMTWVRQAPGKGLEWVAFIRNKAGGYTTESNPAVKGRFTISRDNAKNSLYLQMNSLRAEDTAVYYCARETTGIPTGWFAYWGQGTLVTVSSASTKGPSVFPLAPSSKSTSGGTAALGCLVKDYFPEPVTVSWNSGALTSGVHTFPAVLQSSGLYSLSSVVTVPSSSLGTQTYICNVNHKPSNTKVDKKVEPKSCDKTHTCPPCPAPEAAGAPSVFLFPPKPKDTLMISRTPEVTCVVVDVSHEDPEVKFNWYVDGVEVHNAKTKPREEQYNSTYRVVSVLTVLHQDWLNGKEYKCKVSNKALPAPIEKTISKAKGQPREPQVYTLPPSREEMTKNQVSLTCLVKGFYPSDIAVEWESNGQPENNYKTTPPVLDSDGSFFLYSKLTVDKSRWQQGNVFSCSVMHEALHNHYTQKSLSLSPGK
light: DIQMTQSPSSLSASVGDRVTITCLASEDIYFDLAWYQQKPGKAPKLLIYGGDRLKEGVPSRFSGSGSGTDYTLTISSLQPEDFATYYCQQSYSYPYTFGQGTKLEIKRTVAAPSVFIFPPSDEQLKSGTASVVCLLNNFYPREAKVQWKVDNALQSGNSQESVTEQDSKDSTYSLSSTLTLSKADYEKHKVYACEVTHQGLSSPVTKSFNRGEC
notes: Lead optimized variant of Ab138; human IgG1 effector null / kappa; HC with or without terminal lysine; Used AF-647- or FITC-conjugated in the dendritic cell flow cytometry assays; also called FITC-Ab571; AF-647-conjugated Ab571
Inhibition of CD69 expression, IC50 [1]: 1.11 nM
Human Jurkat T cell Activation: IC50 CD69 Expression [4]: 0.894 nM
Human Jurkat T cell Activation: IC50 IL-2 [4]: 0.268 nM
binding result [5]: no binding (tested: Up to 30 µg/mL (C1q))
Kd [2]: 0.17 nM
binding result [6]: no binding
binding result [7]: no binding
binding result [8]: no binding
EC50 [9]: 0.00652 nM
Kd [10]: 0.181 nM
Kd [11]: 0.06 nM
koff [12]: 9.8e-05 s⁻¹
kon [12]: 1.64e+06 M⁻¹ s⁻¹
koff [13]: 0.000228 s⁻¹
kon [13]: 1.26e+06 M⁻¹ s⁻¹
EC50 [14]: 7.83 nM
Kd [15]: 0.0604 nM
Kd [16]: 0.181 nM

B3: Ab681 (antibody, human IgG1, kappa, V domains shown)
VH: EVQLVESGGGLVQPGGSLRLSCAASGFTFTDHYMHWVRQAPGKGLEWVAHTRDKAGGYTTESNPAVKGRFTISRDNAKNSLYLQMNSLRAEDTAVYYCARETTRIPTGWFAYWGQGTLVTVSS
VL: DIQMTQSPSSLSASVGDRVTITCLASEDIYFDLAWYQQKPGKAPKLLIYGGDRLQEGVPSRFSGSGSGTDYTLTISSLQPEDFATYYCQQSESYPYTFGQGTKLEIKR
notes: Optimized variant of Ab138; human IgG1 effector null / kappa; HC with or without terminal lysine
Inhibition of CD69 expression, IC50 [1]: 0.42 nM
Inhibition of IL-2 production, IC50 [1]: 0.12 nM
Kd [2]: 1.22 nM

B4: Ab660 (antibody, human IgG1, kappa, V domains shown)
VH: EVQLVESGGGLVQPGGSLRLSCAASGFTFTDHYMHWVRQAPGKGLEWVGHIRNAAGGYTTESNPAVKGRFTISRDNAKNSLYLQMNSLRAEDTAVYYCARETTRIPTGWFAYWGQGTLVTVSS
VL: DIQMTQSPSSLSASVGDRVTITCLASEDIYFDLAWYQQKPGKAPKLLIYGASTPKDGVPSRFSGSGSGTDYTLTISSLQPEDFATYYCQQSEKYPYTFGQGTKLEIKR
notes: as for B3
Inhibition of CD69 expression, IC50 [1]: 0.33 nM
Inhibition of IL-2 production, IC50 [1]: 0.15 nM
Kd [2]: 0.57 nM

B5: Ab689 (antibody, human IgG1, kappa, V domains shown)
VH: EVQLVESGGGLVQPGGSLRLSCAASGFTFTDHYMHWVRQAPGKGLEWVAHTRDKAGGYTTESNPAVKGRFTISRDNAKNSLYLQMNSLRAEDTAVYYCARETTRIPTGWFAYWGQGTLVTVSS
VL: DIQMTQSPSSLSASVGDRVTITCLASEDIYFDLAWYQQKPGKAPKLLIYGGDRLQEGVPSRFSGSGSGTDYTLTISSLQPEDFATYYCQQSYSYPYTFGQGTKLEIKR
notes: as for B3
Inhibition of CD69 expression, IC50 [1]: 0.41 nM
Inhibition of IL-2 production, IC50 [1]: 0.17 nM
Kd [2]: 3.59 nM

B6: Ab673 (antibody, human IgG1, kappa, V domains shown)
VH: EVQLVESGGGLVQPGGSLRLSCAASGFTFTDHYMHWVRQAPGKGLEWVAHTRDKAGGYTTESNPAVKGRFTISRDNAKNSLYLQMNSLRAEDTAVYYCARETTRIPTGWFAYWGQGTLVTVSS
VL: DIQMTQSPSSLSASVGDRVTITCLASEDIYFDLAWYQQKPGKAPKLLIYGGDRLKEGVPSRFSGSGSGTDYTLTISSLQPEDFATYYCQQSYSYPYTFGQGTKLEIKR
notes: as for B3
Inhibition of CD69 expression, IC50 [1]: 0.3 nM
Inhibition of IL-2 production, IC50 [1]: 0.18 nM
Kd [2]: 0.21 nM
